{
  "source": "patent US20220088144A1",
  "about": "“SGLT-2 INHIBITORS OR IL-1R ANTAGONISTS FOR REDUCTION OF HYPOGLYCAEMIA AFTER BARIATRIC SURGERY” (UNIVERSITÄTSSPITAL BASEL, priority 2019, published 2022)",
  "key": {"[1]": {"molecular_target": "T1, sodium glucose co-transporter 2 (SGLT2) (Homo sapiens, UniProt P31639)", "T1 construct": "SGLT2 is predominantly expressed in the proximal tubule of the kidney; host or cells: endogenous transporter of the kidney proximal tubule (in vivo, patients)", "T1 sequence (P31639 1-672)": "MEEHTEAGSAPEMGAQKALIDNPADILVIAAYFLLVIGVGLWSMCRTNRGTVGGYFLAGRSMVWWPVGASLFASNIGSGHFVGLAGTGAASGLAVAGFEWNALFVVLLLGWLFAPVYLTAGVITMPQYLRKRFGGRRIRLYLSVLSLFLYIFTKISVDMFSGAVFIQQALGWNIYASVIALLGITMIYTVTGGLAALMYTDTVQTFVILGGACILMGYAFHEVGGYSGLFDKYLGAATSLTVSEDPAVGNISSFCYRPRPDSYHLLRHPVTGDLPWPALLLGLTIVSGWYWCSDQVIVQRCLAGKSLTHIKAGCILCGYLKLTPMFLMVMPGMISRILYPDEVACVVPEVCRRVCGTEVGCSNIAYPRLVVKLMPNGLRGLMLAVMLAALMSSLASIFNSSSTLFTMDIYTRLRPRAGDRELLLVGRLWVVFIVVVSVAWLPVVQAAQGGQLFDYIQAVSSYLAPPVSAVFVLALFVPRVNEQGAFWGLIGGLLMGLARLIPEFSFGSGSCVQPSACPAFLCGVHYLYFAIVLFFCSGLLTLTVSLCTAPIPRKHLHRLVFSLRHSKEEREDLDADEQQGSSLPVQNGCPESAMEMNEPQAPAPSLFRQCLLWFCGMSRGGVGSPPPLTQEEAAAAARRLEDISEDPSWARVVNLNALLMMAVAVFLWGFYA", "conditions": "cited from earlier work"}, "[2]": {"conditions": "cited from earlier work"}, "[3]": {"assay": "Serum IL-1Ra level after anakinra injection", "type": "in vivo, human", "conditions": "average; 100 mg s.c.; increased from an average of 272 pg/ml", "source_text": "The secondary objectives are to evaluate whether treatment of empagliflozin (Jardiance®) or anakinra (Kineret®) have effects on the following aspects: • level of insulin secretion and sensitivity • levels of GLP-1, glucagon and C-peptide • levels of IL-6; IL-1Ra, CRP • scores in Edinburgh Hypoglycaemia Scale (clinical score for assessment of hypoglycemia), Stanford Sleepiness Scale (clinical score of assessment of sleepiness) as well as Sigstad Score (clinical score for early and late dumping symptoms) • Length of time and amount of glucose needed for restoring normoglycemia.\nIndividual body weights remained stable throughout the study period. […] Leukocyte and CRP levels were not elevated and remained stable throughout the trial."}},
  "data": [
    {"compound": "OC[C@H]1O[C@@H](c2ccc(Cl)c(Cc3ccc(O[C@H]4CCOC4)cc3)c2)[C@H](O)[C@@H](O)[C@@H]1O", "note": "[empagliflozin]", "values": [
      {"measurement": "duration of glucosuria", "setting": "[1]; after oral administration", "value": "at least 24 hours"},
      {"measurement": "glucosuria", "setting": "[1]; in vivo", "value": 64, "unit": "g glucose per day"}
    ]},
    {"compound": "anakinra: CAS NO 143090-92-0; recombinant, non-glycosylated form of the human interleukin-1 receptor antagonist (IL-1 Ra), 153 amino acids", "values": [
      {"measurement": "reduction of WBC/ANC", "setting": "[2]; share of patients", "value": 2.4, "unit": "%"},
      {"measurement": "mild and transient local injection reactions", "setting": "[2]; share of subjects treated", "value": "20-50%"},
      {"measurement": "serum levels of IL-1Ra after injection of anakinra", "setting": "[3]", "value": 43.836, "unit": "ng/mL"}
    ]}
  ]
}
